In paper PMC3521694 (PLoS Pathogens, 2012):

B1: Rab5b(1-190):GDP (domain or fragment)
chain: MTSRSTARPNGQPQASKICQFKLVLLGESAVGKSSLVLRFVKGQFHEYQESTIGAAFLTQSVCLDDTTVKFEIWDTAGQERYHSLAPMYYRGAQAAIVVYDITNQETFARAKTWVKELQRQASPSIVIALAGNKADLANKRMVEYEEAQAYADDNSLLFMETSAKTAMNVNDLFLAIAKKLPKSEPQNLG
notes: also called wild-type Rab5b(1-190)
B2: Rab22a(1-175):GDP (domain or fragment)
chain: MALRELKVCLLGDTGVGKSSIVWRFVEDSFDPNINPTIGASFMTKTVQYQNELHKFLIWDTAGQERFRALAPMYYRGSAAAIIVYDITKEETFSTLKNWVKELRQHGPPNIVVAIAGNKCDLIDVREVMERDAKDYADSIHAIFVETSAKNAININELFIEISRRIPSTDANLPS
notes: also called wild-type Rab22a(1-175)

Target: full-length VipD (vacuolar protein sorting inhibitor protein D) (Legionella pneumophila, UniProt Q5ZRP9 1-621)
Assay: ITC; […]; 25°C; 20 mM Tris-HCl pH 7.5, 100 mM NaCl; iTC200
Conditions: both partners purified

| Binder | Kd [nM] |
| --- | --- |
| B1 | 3150 |
| B2 | 123 |
